According to US20110118447A1:
Where a chain is given by its changes, count along the chain named. Names and notes keep the numbering of the source. Blank lines part the entries; values can stand above or below the molecule they belong to.

How the values were obtained:
[1] = target: binding partner (antigen) of ING-1; assay: Biacore, internal control
[2] = target: binding partner (antigen) of ING-1, not given; assay: Biacore; internal control identical to original
[3] = target: binding partner of C5A (XPA23); assay: Biacore (K-off), clones identical to parent C5A (XPA23)
[4] = target: binding partner of C5A (XPA23); assay: Biacore; internal control, L96 L is identical to the original C5A (XPA23)
[5] = target: binding partner of C5A (XPA23); assay: Biacore, mutant vs original C5A (XPA23)

fold difference in affinity vs original [1]: 1.38 fold
Molecule: ING-1 (original, unmodified variable domain) (antibody)

fold difference in affinity vs original [2]: 1.38 fold
Molecule: ING-1 antibody variable domain (original, unmodified)

mean fold affinity of internal controls vs original [3]: 1.03 fold
fold difference in affinity in comparison to original [4]: 1.16 fold
B1: C5A (XPA23) (antibody, V domains shown)
VH: EVQLLESGGGLVQPGGSLRLSCAASGFTFSKYFMFWVRQAPGKGLEWVSVISPSGGMTRYADSVKGRFTISRDNSKNTLYLQMNSLRAEDTAVYYCARVGYGGNSDYWGQGTLVTVSS
VL: DIQMTQSPSSVSASVGDRLTIICRASQDINRWLAWYQQTPGNAPKLLIHSATSLQSGVPSRFSGSGSGTDFTLTINSLQPEDFATYYCQQADSFPLTFGGGTKVEIK

fold difference in affinity in comparison to original [5]: 0.88 fold
B2: C5A (XPA23) light chain variable region F94I (antibody, V domains shown)
VH: B1 VH
VL: B1 VL with F94I

fold difference in affinity in comparison to original [5]: 1.16 fold
B3: C5A (XPA23) light chain variable region S93A (antibody, V domains shown)
VH: B1 VH
VL: B1 VL with S93A

fold difference in affinity in comparison to original [5]: 0.17 fold
B4: C5A (XPA23) light chain variable region F94P (antibody, V domains shown)
VH: B1 VH
VL: B1 VL with F94P

fold difference in affinity in comparison to original [5]: 3.83 fold
B5: C5A (XPA23) light chain variable region P95A (antibody, V domains shown)
VH: B1 VH
VL: B1 VL with P95A

fold difference in affinity in comparison to original [5]: 0.26 fold
B6: C5A (XPA23) light chain variable region L96A (antibody, V domains shown)
VH: B1 VH
VL: B1 VL with L96A

fold difference in affinity in comparison to original [5]: 1.08 fold
B7: C5A (XPA23) light chain variable region S93L (antibody, V domains shown)
VH: B1 VH
VL: B1 VL with S93L

fold difference in affinity in comparison to original [5]: 0.75 fold
B8: C5A (XPA23) light chain variable region S93G (antibody, V domains shown)
VH: B1 VH
VL: B1 VL with S93G

fold difference in affinity in comparison to original [5]: 0.67 fold
B9: C5A (XPA23) light chain variable region L96I (antibody, V domains shown)
VH: B1 VH
VL: B1 VL with L96I

fold difference in affinity in comparison to original [5]: 1.35 fold
B10: C5A (XPA23) light chain variable region S93I (antibody, V domains shown)
VH: B1 VH
VL: B1 VL with S93I

fold difference in affinity in comparison to original [5]: 0.06 fold
B11: C5A (XPA23) light chain variable region L96T (antibody, V domains shown)
VH: B1 VH
VL: B1 VL with L96T

fold difference in affinity in comparison to original [5]: 0.2 fold
B12: C5A (XPA23) light chain variable region F94V (antibody, V domains shown)
VH: B1 VH
VL: B1 VL with F94V

fold difference in affinity in comparison to original [5]: 3.81 fold
B13: C5A (XPA23) light chain variable region S93V (antibody, V domains shown)
VH: B1 VH
VL: B1 VL with S93V

fold difference in affinity in comparison to original [5]: 0.55 fold
B14: C5A (XPA23) light chain variable region F94L (antibody, V domains shown)
VH: B1 VH
VL: B1 VL with F94L

fold difference in affinity in comparison to original [5]: 1.47 fold
B15: C5A (XPA23) light chain variable region S93T (antibody, V domains shown)
VH: B1 VH
VL: B1 VL with S93T
